# Article PMC11549089
# Several values for one entry are separate records, joined by “and”; a condition that tells them apart may be missing. Equal values may be shown once.
# Target: influenza A virus RNA polymerase (FluAPol) heterotrimer of human influenza A/NT/60/1968 (H3N2) (human influenza A/NT/60/1968 (H3N2) virus) (UniProt P03429)
# Assay: cryo-EM structure
substance,measurement,value
influenza A virus RNA polymerase (FluAPol) heterotrimer of human influenza A/NT/60/1968 (H3N2) (from UniProt P03429) (complex),stoichiometry N,2 and 6
